41 variants from the RNAGym collection of RNA variant scans (doi:10.7554/elife.90254) can be followed below.

B1: OR4K15 (parent)
chain: GUUAACGGUCAUAGGCCAUGGAAACUAGGAGCACCAUUUCGCUGCCAGUGAAGAAAUGAACAAAGAAAAUCUGGGCCAGGCAGGCAUCAAAAGAAAUAGUCUUGCGCUCAACCAGAAAGUCUGUAAUCAUUUUAAGGGUA

This series covers variants of B1. The series is described as follows: self-cleavage, relative activity (ratio to wild type); higher = more cleavage; in vitro, sequencing; the parent is a self-cleaving ribozyme.
As to GUUAACGGUCAUAGGCCAUGGAAACUAGGAGCACCAUUUCGCUGCCAGUGAAGAAAUGAACAAAGAAAAUCUGGGCCAGGCAGGCAUCAAAUGUAAUAGUCUUGCGCUCAACCAGAAAGUCUGUAAUCAUUUUAAGGGUA [A92U A94U], the self-cleavage was found to be 2.03.

In the case of GUUAACGGUCAUAGGCCAUGGAAACUAGGAGCACCAUUUCGCUGCCAGUGAAGAAAUGAACAAAGAAAAUCUGGGCCAGGCAGGCAUCAAAGGAAAUAGUCUUGCGCUCAACCAGAAAAUCUGUAAUCAUUUUAAGGGUA [A92G G119A], the self-cleavage turned out to be 2.3.

For the variant GUUAACGGUCAUAGGCCAUGGAAACUAGGAGCACCAUUUCGCUGCCAGUGAAGAAAUGAACAAAGAAAAUCUGGGCCAGGCAGGCAUCAAAUGAAAUAGUCUUGCGCUCAACCAGAAGGUCUGUAAUCAUUUUAAGGGUA [A92U A118G], the self-cleavage was determined as 1.02.

On to GUUAACGGUCAUAGGCCAUGGAAACUAGGAGCACCAUUUCGCUGCCAGUGAAGAAAUGAACAAAGAAAAUCUGGGCCAGGCAGGCAUCAAAUGAAAUAGUCUUGCGCUCAACCAGAAAGUCUGUAAUCAUCUUAAGGGUA [A92U U131C], for which the self-cleavage is 1.36.

For GUUAACGGUCAUAGGCCAUGGAAACUAGGAGCACCAUUUCGCUGCCAGUGAAGAAAUGAACAAAGAAAAUCUGGGCCAGGCAGGCAUCAAAGGAAAUAGUCUUGCGCUCAACCAGAAAGUCUAUAAUCAUUUUAAGGGUA [A92G G123A], the self-cleavage worked out at 2.51.

Regarding GUUAACGGUCAUAGGCCAUGGAAACUAGGAGCACCAUUUCGCUGCCAGUGAAGAAAUGAACAAAGAAAAUCUGGGCCAGGCAGGCAUCAAAGGAAAUAGUCUUGCGCUCAACCAGAAAGUCUGUAACCAUUUUAAGGGUA [A92G U127C], the self-cleavage amounted to 0.9.

In the case of GUUAACGGUCAUAGGCCAUGGAAACUAGGAGCACCAUUUCGCUGCCAGUGAAGAAAUGAACAAAGAAAAUCUGGGCCAGGCAGGCAUCAAAGGAAAUAGUCUUGCGCUCAACCAGAAAGUCUGUAAUCAUUUUAAGGGCA [A92G U139C], the self-cleavage worked out at 1.75.

On to GUUAACGGUCAUAGGCCAUGGAAACUAGGAGCACCAUUUCGCUGCCAGUGAAGAAAUGAACAAAGAAAAUCUGGGCCAGGCAGGCAUCAAAGGAAAUAGUCUUGCGCUCAACCAGAAAGUCUGUAAUCAUCUUAAGGGUA [A92G U131C], for which the self-cleavage worked out at 0.49.

For GUUAACGGUCAUAGGCCAUGGAAACUAGGAGCACCAUUUCGCUGCCAGUGAAGAAAUGAACAAAGAAAAUCUGGGCCAGGCAGGCAUCAAAGGAAAUAGUCUUGCGCUCAACCAGAAAGUCUGUAAUCAUUUUAAGAGUA [A92G G137A], the self-cleavage was 1.34.

Consider GUUAACGGUCAUAGGCCAUGGAAACUAGGAGCACCAUUUCGCUGCCAGUGAAGAAAUGAACAAAGAAAAUCUGGGCCAGGCAGGCAUCAAAGGAAACAGUCUUGCGCUCAACCAGAAAGUCUGUAAUCAUUUUAAGGGUA [A92G U97C], for which the self-cleavage was 1.57.

As to GUUAACGGUCAUAGGCCAUGGAAACUAGGAGCACCAUUUCGCUGCCAGUGAAGAAAUGAACAAAGAAAAUCUGGGCCAGGCAGGCAUCAAAGGAAAUAGUCUUGCGCUCAACCAGAAAGUCUGUAAUCAUUAUAAGGGUA [A92G U132A], the self-cleavage stood at 1.23.

On to GUUAACGGUCAUAGGCCAUGGAAACUAGGAGCACCAUUUCGCUGCCAGUGAAGAAAUGAACAAAGAAAAUCUGGGCCAGGCAGGCAUCAAAGGAAAUAGUCUUGCGCUCAACCAGAAAGUCUGUAAUCAUUGUAAGGGUA [A92G U132G], for which the self-cleavage is 1.04.

With GUUAACGGUCAUAGGCCAUGGAAACUAGGAGCACCAUUUCGCUGCCAGUGAAGAAAUGAACAAAGAAAAUCUGGGCCAGGCAGGCAUCAAAUGAAAUAGUCUUGCGCUCAACCAGAAAGUCCGUAAUCAUUUUAAGGGUA [A92U U122C], the self-cleavage worked out at 1.3.

For the variant GUUAACGGUCAUAGGCCAUGGAAACUAGGAGCACCAUUUCGCUGCCAGUGAAGAAAUGAACAAAGAAAAUCUGGGCCAGGCAGGCAUCAAAGGAAAUAGUCUUGCGCACAACCAGAAAGUCUGUAAUCAUUUUAAGGGUA [A92G U108A], the self-cleavage was found to be 0.03.

With GUUAACGGUCAUAGGCCAUGGAAACUAGGAGCACCAUUUCGCUGCCAGUGAAGAAAUGAACAAAGAAAAUCUGGGCCAGGCAGGCAUCAAAGGAAAUAGUCUUGCGCCCAACCAGAAAGUCUGUAAUCAUUUUAAGGGUA [A92G U108C], the self-cleavage stood at 0.01.

In the case of GUUAACGGUCAUAGGCCAUGGAAACUAGGAGCACCAUUUCGCUGCCAGUGAAGAAAUGAACAAAGAAAAUCUGGGCCAGGCAGGCAUCAAAGGAAAUAGUCUGGCGCUCAACCAGAAAGUCUGUAAUCAUUUUAAGGGUA [A92G U103G], the self-cleavage worked out at 0.03.

GUUAACGGUCAUAGGCCAUGGAAACUAGGAGCACCAUUUCGCUGCCAGUGAAGAAAUGAACAAAGAAAAUCUGGGCCAGGCAGGCAUCAAAGGAAAUAGUCUCGCGCUCAACCAGAAAGUCUGUAAUCAUUUUAAGGGUA [A92G U103C]: the self-cleavage is 0.6.

For GUUAACGGUCAUAGGCCAUGGAAACUAGGAGCACCAUUUCGCUGCCAGUGAAGAAAUGAACAAAGAAAAUCUGGGCCAGGCAGGCAUCAAAUGAAAUAGUCUUGCGCUCAACCAGAAAGUCUGUAUUCAUUUUAAGGGUA [A92U A126U], the self-cleavage was found to be 1.02.

As for GUUAACGGUCAUAGGCCAUGGAAACUAGGAGCACCAUUUCGCUGCCAGUGAAGAAAUGAACAAAGAAAAUCUGGGCCAGGCAGGCAUCAAAAUAAAUAGUCUUGCGCUCAACCAGAAAGUCUGUAAUCAUUUUGAGGGUA [G93U A134G], the self-cleavage worked out at 1.18.

Take GUUAACGGUCAUAGGCCAUGGAAACUAGGAGCACCAUUUCGCUGCCAGUGAAGAAAUGAACAAAGAAAAUCUGGGCCAGGCAGGCAUCAAAAGCAGUAGUCUUGCGCUCAACCAGAAAGUCUGUAAUCAUUUUAAGGGUA [A94C A96G]: the self-cleavage was found to be 0.94.

Regarding GUUAACGGUCAUAGGCCAUGGAAACUAGGAGCACCAUUUCGCUGCCAGUGAAGAAAUGAACAAAGAAAAUCUGGGCCAGGCAGGCAUCAAAAAAAAUAGUCUUGCGCUCAGCCAGAAAGUCUGUAAUCAUUUUAAGGGUA [G93A A111G], the self-cleavage worked out at 0.04.

For GUUAACGGUCAUAGGCCAUGGAAACUAGGAGCACCAUUUCGCUGCCAGUGAAGAAAUGAACAAAGAAAAUCUGGGCCAGGCAGGCAUCAAAACAAAUGGUCUUGCGCUCAACCAGAAAGUCUGUAAUCAUUUUAAGGGUA [G93C A98G], the self-cleavage stood at 1.57.

As for GUUAACGGUCAUAGGCCAUGGAAACUAGGAGCACCAUUUCGCUGCCAGUGAAGAAAUGAACAAAGAAAAUCUGGGCCAGGCAGGCAUCAAAGGAAAUAGUCUUGCGCUCAACAAGAAAGUCUGUAAUCAUUUUAAGGGUA [A92G C113A], the self-cleavage came to 0.01.

In the case of GUUAACGGUCAUAGGCCAUGGAAACUAGGAGCACCAUUUCGCUGCCAGUGAAGAAAUGAACAAAGAAAAUCUGGGCCAGGCAGGCAUCAAAUGAAAUAGUCUUGCGCUCUACCAGAAAGUCUGUAAUCAUUUUAAGGGUA [A92U A110U], the self-cleavage stood at 1.74.

As to GUUAACGGUCAUAGGCCAUGGAAACUAGGAGCACCAUUUCGCUGCCAGUGAAGAAAUGAACAAAGAAAAUCUGGGCCAGGCAGGCAUCAAAUGAAAUAGUCUUGCGCUCAACCGGAAAGUCUGUAAUCAUUUUAAGGGUA [A92U A114G], the self-cleavage was 0.17.

Turning to GUUAACGGUCAUAGGCCAUGGAAACUAGGAGCACCAUUUCGCUGCCAGUGAAGAAAUGAACAAAGAAAAUCUGGGCCAGGCAGGCAUCAAAUGAAAUAGUCUUGCGCUCAACCUGAAAGUCUGUAAUCAUUUUAAGGGUA [A92U A114U], the self-cleavage amounted to 0.14.

For GUUAACGGUCAUAGGCCAUGGAAACUAGGAGCACCAUUUCGCUGCCAGUGAAGAAAUGAACAAAGAAAAUCUGGGCCAGGCAGGCAUCAAAGGAAAUAGUCUUGCGCUCAACCAGAAAGCCUGUAAUCAUUUUAAGGGUA [A92G U120C], the self-cleavage is 0.64.

Regarding GUUAACGGUCAUAGGCCAUGGAAACUAGGAGCACCAUUUCGCUGCCAGUGAAGAAAUGAACAAAGAAAAUCUGGGCCAGGCAGGCAUCAAAAAAAAUAGUCUUGCGCUCAACCAGAAAGUCUGUAGUCAUUUUAAGGGUA [G93A A126G], the self-cleavage is 2.16.

GUUAACGGUCAUAGGCCAUGGAAACUAGGAGCACCAUUUCGCUGCCAGUGAAGAAAUGAACAAAGAAAAUCUGGGCCAGGCAGGCAUCAAAGGAAAUAGUCUUGCGCUUAACCAGAAAGUCUGUAAUCAUUUUAAGGGUA [A92G C109U]: the self-cleavage stood at 0.59.

Take GUUAACGGUCAUAGGCCAUGGAAACUAGGAGCACCAUUUCGCUGCCAGUGAAGAAAUGAACAAAGAAAAUCUGGGCCAGGCAGGCAUCAAAAGCAAUAGUCUUGCGCUCAACCAGAAAGUCUGUAAUCAUUUUAAGGGUA [A94C]: the self-cleavage came to 1.69.

Take GUUAACGGUCAUAGGCCAUGGAAACUAGGAGCACCAUUUCGCUGCCAGUGAAGAAAUGAACAAAGAAAAUCUGGGCCAGGCAGGCAUCAAAUGAAAUAGUCUUGCGCUCAACCAGAAAGUCUGUAAUCAUUUUAAGGGCA [A92U U139C]: the self-cleavage worked out at 1.43.

On to GUUAACGGUCAUAGGCCAUGGAAACUAGGAGCACCAUUUCGCUGCCAGUGAAGAAAUGAACAAAGAAAAUCUGGGCCAGGCAGGCAUCAAAUGAAAUAGUCUUGCGCUCAACCAGAAAGUCUUUAAUCAUUUUAAGGGUA [A92U G123U], for which the self-cleavage is 2.07.

For GUUAACGGUCAUAGGCCAUGGAAACUAGGAGCACCAUUUCGCUGCCAGUGAAGAAAUGAACAAAGAAAAUCUGGGCCAGGCAGGCAUCAAAUGAAAUAGUCCUGCGCUCAACCAGAAAGUCUGUAAUCAUUUUAAGGGUA [A92U U102C], the self-cleavage was found to be 2.01.

Regarding GUUAACGGUCAUAGGCCAUGGAAACUAGGAGCACCAUUUCGCUGCCAGUGAAGAAAUGAACAAAGAAAAUCUGGGCCAGGCAGGCAUCAAAGGAAAUAGUCUUGCGCUCAACCAGAAAGUCAGUAAUCAUUUUAAGGGUA [A92G U122A], the self-cleavage came out at 1.96.

Turning to GUUAACGGUCAUAGGCCAUGGAAACUAGGAGCACCAUUUCGCUGCCAGUGAAGAAAUGAACAAAGAAAAUCUGGGCCAGGCAGGCAUCAAAGGAAAUAGUCUUGCGCUCAACCAGAAAGUCGGUAAUCAUUUUAAGGGUA [A92G U122G], the self-cleavage stood at 2.31.

As for GUUAACGGUCAUAGGCCAUGGAAACUAGGAGCACCAUUUCGCUGCCAGUGAAGAAAUGAACAAAGAAAAUCUGGGCCAGGCAGGCAUCAAAUGAAAUAGCCUUGCGCUCAACCAGAAAGUCUGUAAUCAUUUUAAGGGUA [A92U U100C], the self-cleavage was 2.23.

Take GUUAACGGUCAUAGGCCAUGGAAACUAGGAGCACCAUUUCGCUGCCAGUGAAGAAAUGAACAAAGAAAAUCUGGGCCAGGCAGGCAUCAAAGGAAAUAGUCGUGCGCUCAACCAGAAAGUCUGUAAUCAUUUUAAGGGUA [A92G U102G]: the self-cleavage came out at 0.61.

As to GUUAACGGUCAUAGGCCAUGGAAACUAGGAGCACCAUUUCGCUGCCAGUGAAGAAAUGAACAAAGAAAAUCUGGGCCAGGCAGGCAUCAAAGGAAAUAGUCAUGCGCUCAACCAGAAAGUCUGUAAUCAUUUUAAGGGUA [A92G U102A], the self-cleavage was determined as 0.61.

Consider GUUAACGGUCAUAGGCCAUGGAAACUAGGAGCACCAUUUCGCUGCCAGUGAAGAAAUGAACAAAGAAAAUCUGGGCCAGGCAGGCAUCAAAGGAAAUAGUCCUGCGCUCAACCAGAAAGUCUGUAAUCAUUUUAAGGGUA [A92G U102C], for which the self-cleavage turned out to be 1.8.

Turning to GUUAACGGUCAUAGGCCAUGGAAACUAGGAGCACCAUUUCGCUGCCAGUGAAGAAAUGAACAAAGAAAAUCUGGGCCAGGCAGGCAUCAAAUGAAAUAGUCUUGCGCUCAACCAGAAAGUCUGUAAUCACUUUAAGGGUA [A92U U130C], the self-cleavage worked out at 1.59.

As for GUUAACGGUCAUAGGCCAUGGAAACUAGGAGCACCAUUUCGCUGCCAGUGAAGAAAUGAACAAAGAAAAUCUGGGCCAGGCAGGCAUCAAAGGAAAUAGCCUUGCGCUCAACCAGAAAGUCUGUAAUCAUUUUAAGGGUA [A92G U100C], the self-cleavage worked out at 1.84.
